# Data: IntAct's records for PubMed 20223215
# Biological target: lrp8_human LRP8 (UniProt Q14114)
# Sequence of UniProt Q14114 (Q14114 whole entry): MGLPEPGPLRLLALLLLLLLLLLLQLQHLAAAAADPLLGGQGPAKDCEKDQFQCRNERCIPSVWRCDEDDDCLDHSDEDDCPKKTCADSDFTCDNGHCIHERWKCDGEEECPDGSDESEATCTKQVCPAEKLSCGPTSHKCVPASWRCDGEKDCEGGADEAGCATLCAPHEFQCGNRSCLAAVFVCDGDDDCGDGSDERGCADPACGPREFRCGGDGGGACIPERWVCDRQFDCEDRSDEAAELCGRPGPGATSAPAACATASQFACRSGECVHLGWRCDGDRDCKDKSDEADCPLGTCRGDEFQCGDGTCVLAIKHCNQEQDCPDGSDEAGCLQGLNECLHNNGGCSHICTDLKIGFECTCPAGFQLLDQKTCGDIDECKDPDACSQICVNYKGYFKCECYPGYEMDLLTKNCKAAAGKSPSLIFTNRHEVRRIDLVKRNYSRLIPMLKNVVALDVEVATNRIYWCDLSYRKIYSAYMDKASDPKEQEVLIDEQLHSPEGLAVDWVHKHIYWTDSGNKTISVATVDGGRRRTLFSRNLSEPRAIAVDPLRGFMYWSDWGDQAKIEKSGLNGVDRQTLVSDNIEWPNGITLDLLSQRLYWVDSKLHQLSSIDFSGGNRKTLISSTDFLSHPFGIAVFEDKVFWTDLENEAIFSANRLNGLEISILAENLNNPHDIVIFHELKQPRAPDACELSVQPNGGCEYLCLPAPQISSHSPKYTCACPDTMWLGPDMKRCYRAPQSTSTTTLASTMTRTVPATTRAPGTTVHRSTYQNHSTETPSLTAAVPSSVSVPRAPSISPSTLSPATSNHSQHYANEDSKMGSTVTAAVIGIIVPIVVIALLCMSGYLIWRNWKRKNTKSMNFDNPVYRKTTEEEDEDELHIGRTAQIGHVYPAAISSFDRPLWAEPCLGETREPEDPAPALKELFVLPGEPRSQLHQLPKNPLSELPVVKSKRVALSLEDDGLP
row,effect of a mutation on the interaction,Substance
1,disrupting interaction,"Reelin (Mus musculus), Q60841 K2360A"
2,disrupting interaction strength,"Reelin (Mus musculus), Q60841 K2467R"
3,disrupting interaction strength,"Reelin (Mus musculus), Q60841 K2467A"
